The results in this text go back to the DeepSol protein solubility set.

The data set can be described thus: soluble on expression in E. coli; label from the status in PepcDB or PDB records.
Regarding “MAQASPPRPERVLGASSPEARPAQEALLLPTGVFQVAEKMEKRTCALCPKDVEYNVLYFAQSENIAAHENCLLYSSGLVECEDQDPLNPDRSFDVESVKKEIQRGRKLKCKFCHKRGATVGCDLKNCNKNYHFFCAKKDDAVPQSDGVRGIYKLLCQQHAQFPIIAQSAKFSGVKRKRGRKKPLSGNHVQPPETMKCNTFIRQVKEEHGRHTDATVKVPFLKKCKEAGLLNYLLEEILDKVHSIPEKLMDETTSESDYEEIGSALFDCRLFEDTFVNFQAAIEKKIHASQQRWQQLKEEIELLQDLKQTLCSFQENRDLMSSSTSISSLSY”, the “soluble on expression in E. coli” value is “not soluble”. In the case of “MAQDGDRHHIFVSAPPPPPPSSSIPAPSQPNRLEKEPLIDEETDMIDESRATYWKGCEFLKASGLYSSKCELV” it was “not soluble”; in that of “MAQMYFYYSAMNAGKSTTLLQSSFNYQERGMTPVIFTAALDDRYGVGKVSSRIGLQSDAHLFRPDTNLYQEIAALHEVEKRHCILIDECQFLSKEQVYQLTEVVDKLHIPVLCYGLRTDFLGELFEGSKYLLSWADKLVELKTICHCGRKANMVIRTDEHGVAIKEGDQVAIGGNDRYVSVCRQHYKEALGKLEHHHHHH”, “soluble”. Turning to “MAQQHNDWADITSLDTFPKVLQHNAKHWPEQVAMREKEFGIWREFTWQDYENRVKWMALALQDLGIGEQDVVGLLGDNRPEWVWGELAAHAIKGYSLGIYQDSMHEEVAYLINYAKAKVVIAEDEEQCDKLLELGDEIPSVEYIIYCDPRGMRKYDDPRLIDVEQVYKKGQLIDKADPDKYLNMVAATKGSDLSILCTTSGTTSKPKLAQLHSGTFLDHCAAYLRADPRSPGDNYVSVLPLPWIMEQVYVVGQALISRQIVNFVEEQETMMSDLREIGPNFVLLAPRVWENIVADVSARMMDSTPFKQKMYKLGMSLANKALDQGKRSKLAEWILLRA”, the “soluble on expression in E. coli” value is “not soluble”.

On to “MAQQTNVAGQKTEKQRKAPFRADHVGSLLRSVPVKEARQKKAAGEMTAEQLRDIENQEITRIVEKQKEIGLDVVTDGEFRRSWWHYDFLEGLDGVEPFIPAEGIQFHNTKTKARSIKVTGKLDFTSHPALGDYQFLHEIAGNATPKLTIPSPNMLFFGEKADKGIYDDQEEYFHDMAQAYKKAIKAFYDAGCRYLQLDDTSWSLFFEDKGREVVRALGGDPETLPAIFAKTINDAVADRPDDLTITMHICRGNFRSTWAASGGYDAVAETILDGLNLDGLFLEYDDDRSGNFDPLRFVKRKDLQIVLGLITSKYGELENPEDVNAVSMKPRVLSAWTSYALEHHHHHH”, for which the “soluble on expression in E. coli” value was “not soluble”. As to “MAQRLDGARFRYLNEQLYSGPSSAAQRLFQEDPEAFLLYHRGFQSQVKKWPLQPVDRIARDLRQRPASLVVADFGCGDCRLASSIRNPVHCFDLASLDPRVTVCDMAQVPLEDESVDVAVFCLSLMGTNIRDFLEEANRVLKPGGLLKVAEVSSRFEDVRTFLRAVTKLGFKIVSKDLTNSHFFLFDFQKTGPPLVGPKAQLSGLQLQPCLYKRR”, the “soluble on expression in E. coli” value is reported as “soluble”. In the case of “MAQTDKPTCIPPELPKMLKEFAKAAIRVQPQDLIQWAADYFEALSRGETPPVRERSERVALCNRAELTPELLKILHSQVAGRLIIRAEELAQMWKVVNLPTDLFNSVMNVGRFTEEIEWLKFLALACSALGVTITKTLKIVCEVLSCDHNGGSPRIPFSTFQFLYTYIAKVDGEISASHVSRMLNYMEQEVIGPDGIITVNDFTQNPRVQLE” it was “soluble”; in that of “MAREATIARTTNETSIQLSLSLDGEGKAELETGVPFLTHMLDLFAKHGQFDLYIEAKGDTHIDDHHTTEDIGICLGQAIKEALGDKKGIKRYGNAFVPMDDALAQVVIDLSNRPHFEFRGEFPATKVGAFDVELVHEFLWKLALEARMNLHVIVHYGRNTHHMIEAVFKALGRALDEATMIDPRVKGVPSTKGML”, “not soluble”. Consider “MARIFTYPLARKRIRMHKPDDKQYDATYFTRWYRDAGLADPARLRRKVALAVAQAEYYLERPIRTVLDVGCGEAAWRAPLLALRPKLQYLGFDSSEYAVQRYGRSRQIHPARFGDFAWLRPCAPVDLLICSDVLHYVPTREFNQGLPGLAEMCAGVAFLETFAEEDAFEGDHEGFQARPARWYRRRFASVGFTALGSHCWLSPQLRGETAALEHS”, for which the “soluble on expression in E. coli” value is on record as “soluble”. On to “MARIIVVTSGKGGVGKTTSSAAIATGLAQKGKKTVVIDFDIGLRNLDLIMGCERRVVYDFVNVIQGDATLNQALIKDKRTDNLYILPASQTRDKDALTKEGVEKVLNDLGEMNFEFVVCDSPAGIESGALMALYFADEAVITTNPEVSSVRDSDRILGILSSKSRRAENSQEPIKEHLLLTRYNPGRVNRGDMLSMEDVLDILRIPLVGVIPEDQSVLRASNQGEPVILDKESDAGKAYEDTVDRLLGEERPFRFVEEEKKGFLKRLFGG”, for which the “soluble on expression in E. coli” value is reported as “not soluble”. For “MARKKKTRRITDIMPIRKADKKIDITKARSGKKLTCYELDAKAREDKKKRKHKGLASGSRHSAVEEKANKLQNEIKDPKIGSKKKIPLVVEFVNKPEKGQVIPVIKQVKKQDPMKELENLENNEILNELLDALDAGKTISKSDQQFVDECLDRISELMEELGIEDEDESEDDLYRTFERMDINQFR”, the “soluble on expression in E. coli” value is recorded as “not soluble”. In the case of “MARLAAFDMDGTLLMPDHHLGEKTLSTLARLRERDITLTFATGRHALEMQHILGALSLDAYLITGNGTRVHSLEGELLHRDDLPADVAELVLYQQWDTRASMHIFNDDGWFTGKEIPALLQAFVYSGFRYQIIDVKKMPLGSVTKICFCGDHDDLTRLQIQLYEALGERAHLCFSATDCLEVLPVGCNKGAALTVLTQHLGLSLRDCMAFGDAMNDREMLVSVGSGFIMGNAMPQLRAELPHLPVIGHCRNQAVSHYLTHWLDYPHLPYSPE” it was “soluble”; in that of “MARLFTLSESKYYLMALDAGTGSIRAVIFDLEGNQIAVGQAEWRHLAVPDVPGSMEFDLNKNWQLACECMRQALHNAGIAPEYIAAVSACSMREGIVLYNNEGAPIWACANVDARAAREVSELKELHNNTFENEVYRATGQTLALSAIPRLLWLAHHRSDIYRQASTITMISDWLAYMLSGELAVDPSNAGTTGLLDLTTRDWKPALLDMAGLRADILSPVKETGTLLGVVSSQAAELCGLKAGTPVVVGGGDVQLGCLGLGVVRPAQTAVLGGTFWQQVVNLAAPVTDPEMNVRVNPHVIPGMVQAESISFFTGLTMRWFRDAFCAEEKLIAERLGIDTYTLLEEMASRVPPGSWGVMPIFSDRMRFKTWYHAAPSFINLSIDPDKCNKATLFRALEENAAIVSACNLQQIADFSNIHPSSLVFAGGGSKGKLWSQILADVSGLPVNIPVVKEATALGCAIAAGVGAGIFSSMAETGERLVRWERTHTPDPEKHELYQDSRDKWQAVYQDQLGLVDHGLTTSLWKAPGL”, “not soluble”. In the case of “MARMLTAADVEAAGGKLILAAGDRLTPLARDRARELGIVVEAAGLSSGVSTPSASPTSTSAPVVKSPLAAPAPAPVPAARPATPVAPPAATGSRPLALPPSGALYRRNALGPSAQSSRAVDGRPKAGVVGAGHVGAMTALRLAESDLFSEVALVDVVPGLAAGLALDMWHGAGLYGFSTRLSGSDDLVALAGAEYIVITAGKPRQPGMSRTDLTVVNAEIMTSVCRGIRTHAPNSTLVIVSNPLEEMTHLAAQQTGFPEERVLGMAGVLDSARFCALVGLTGKARPQEVRAVALGSHGPEMVIPLSQAFVGDRPIESMFDAETLKALVERARESGGEVVKLLQKGSAYFSPAESAVTMVRAMVRDSGEVIAACVRSRGAYGAVDTRVGLPVRLHRRGLKEIVPLTLRPAEQQALQDAAARIAARIAELPAPC” it was “not soluble”; in that of “MARNPRTTVRRILNSAPRSLLIQSVTIVALDPTDNNHGSHQPGSNGPSNSSTQADNFETETTADEERQKEDGVEDELEDEETTGFIDEDGEIRYPVDEVGNYEIDQEAETDESFYLDTQRDSSLCDERSQLCRSLSDQNLRTTFFLITTTNSKAAILRYLHFHNVSQDSILRKLLLNDSHLTLVEVCNLCAQNIELCKCEDMQEKCQLIFGDLKKWLEVILNSFANIMMKTKTTILEGYNSSSPINKGIFKKKLLSEMADNEMWMHFESSFDGIKVHKNGNQNIWPYSLLNLDLEDVHRASPQALILAALFIGFKNPTTKIHDRLTQWILLQMDEHVFFSEGVAWKADLTCANHDDPARRIVYNQCGLRSSGSCNFCLNQETECKINDEYTTLRENLTGSCPSTMNDGLRQRNQHSHFHKHVLYMHLCPVTSNARMLPKRVHFSALFSKGKWNLFPSKSVDFSSTPSLPSRFRSLSGKASQCTGSEKALSIVVAAAFSGELGGVSSAIILSIHGLYRLCIEPQSITDETLHLKIEQISKSIEVLIVKRAPEMLNGIKVHQVLYHLARMTELYGSLFPLSTQWFEYFYHTIQRTLVPEIYNGLGMSIMRKMSALQEIKTEAAFRLHTNHQFRTEANLKMCYELGLLRRLKRISVVPTPPQYQQFCETGDVFLNVVYHDGIRYSNYCNKKTDDSNVTFIEYARVRFAKIIGMLLKENNTDLRFILKKYCNTNDHLIDISNKLYEEDVPQMHIQNWVDSVSKSSFGGRVTLTNTVVVVSADSIVGHAVVVKRNNNCVALPFSRRISLS”, “not soluble”; in that of “MARPETEPKTELAKRFREVRRILGFTERKQFAEHLGVTAGSIGTYETGVSEPTASALSKYQEICGVSLDWLVTGNGEMFTDMAKAKAAGFKPQAIPAGLMKRLGHLAYTTYHDAKITLPPEDVAELAAGLYGKLQELIHNINDMEEVEATLPLLKLHLKRQIEVEKAHRAIPGNTANSSD”, “not soluble”.

For “MARRISEPAREIDIIHETDVLVVGSGPGGLPAALAAARAGAEVTLVERFGCFGGNLTVVGVEGMHWYRHEQTIESNGIAREFEEKAKEMGAAVPESQSLSHEIDSEGFKLVADRMVLDEPNIRPMLHRFFVAPLMEGDTIIGIVTESKSGREAILARRVIDATGDADVVTRAGAPVYKTPAEQMMAASVMFHLAGVDKQRFMDGIKADPQTYRDWGGGGEWNIETSGKEDDMFSPFLKKPFQQAIRDGLIPPHLNTIAGTWGAVHDTGELTYMNLIHLDGCDGTDPDSLTTYEIEGRRQTMLAIEALRRYTPGCENIRLRNFGMSIGIRDTRKVDCLYNMTETDVREQGRFEDSIGIFPEFIDGYGILILPTTGRYFQMPYRNLLPRGVKNLLVAGRITGGDRISHAATRNMACCAVTGQGAGIAAALSVKSNRPLDEIDPLLIQKELERQGGRHHLEHHHHHH”, the “soluble on expression in E. coli” value is listed as “not soluble”. For “MARRNYQVERNKLEEKDPTWLMQKGQIQPLVSSLVVLNVEGERILARYTAKELFPTFDVEKKFEADLLKKSQTIPDLEENTGVFEHGQHIVVCRASEDLLFFVTSRIYENEVILSEVLTCWVDSLVKVLKNLPLNELNLLQHYEVLLLLVDELVDQEGVIMETDANELSSRTEFAMYSTDPRDLIPELTEQGFSHALQTAKQHLARTILK”, the “soluble on expression in E. coli” value is “not soluble”. For “MARTDIRPIVKLRSTAGTGYTYTTRKNRRNDPDRLILRKYDPILRRHVDFREER”, the “soluble on expression in E. coli” value is recorded as “soluble”. In the case of “MARWERIVDGVKSIALMRKKIITRGKRIALFVDGPNILRKELGIHLEDIVEALSKLGNIRVAKVILNQYAPQSLIEAVSNQGFEPVIVAGEIGVKMAVEAMREVYNPNIDMIALATRNTEFVPIILKAKEKGKETAIIGVEHGLSSALKHAADYVIILKPRGEKIEERHHEDSEERREGGRGA”, the “soluble on expression in E. coli” value is given as “not soluble”. As for “MASDMPLVQLPQRGERINVPLVQSRSEDQRLVTSARQTDKIDADDLVALANQLNSARQLVKGRACDRLKQIADQMEQLHMAARAVLEDAQRDEHLHNVPCNMEKQPGRIYHLYQKQGSMNKYFSMLAPNEWGYQEKKEEYLGSYRLEYDRSWTPVGEMDRKDEEVARLQQLLQREGPVALRGNPNF”, the “soluble on expression in E. coli” value was “not soluble”.
